Assay results taken from patent US20030180744, “High affinity oligonucleotide ligands to growth factors” (GILEAD SCIENCES, INC., published 2003).

Columns and labels:
[1] = target: T1, TGFβ1 (Homo sapiens, UniProt P01137 P01137:279-390); assay: filter; cell IC50 298 and 201 nM; conditions: tags: Genentech; biotinylated version used in bead assay; chain copies: 2
[2] = target: T1, TGFβ1; assay: filter; 2'-OH RNA; printed lib1-6-8 in Table 4; conditions: tags: Genentech; biotinylated version used in bead assay; chain copies: 2
[3] = target: T1, TGFβ1; assay: filter; 2'-OH RNA; conditions: tags: Genentech; biotinylated version used in bead assay; chain copies: 2
[4] = target: T1, TGFβ1; assay: filter; cell IC50 119 nM; conditions: tags: Genentech; biotinylated version used in bead assay; chain copies: 2
[5] = target: T1, TGFβ1; assay: cell_activity; conditions: tags: Genentech or R&D Systems; chain copies: 2
Method: MLEC-Pail/luc cells were plated at 3.2×10⁴ cells per well in a 96 well Falcon plate, in 100 μl of DME+10% fetal bovine serum overnight. Media was made from autoclaved water. The cells were washed three times ([…]) in serum free DME plus Solution A (1:1). Solution A is 30 mM Hepes pH 7.6, 10 mM glucose, 3.0 mM KCl, 131 mM NaCl, 1.0 mM disodium phosphate. Samples (100 μl) were added in DME containing 20 mM Hepes pH 7.5, and 0.1% BSA (Fluka, radioimmunoassay grade). All samples were in triplicate. After six hours at 37° C. in a 5% CO₂ incubator the media was removed and cells were washed three times (100 μl each) in cold PBS. Lysis buffer (75 μl) (Analytical Luminescence Laboratory) was added and the plates incubated on ice for 20 min. The plates were sealed and frozen at −80° C. until assayed. Samples (25 μl) were assayed for luciferase activity with the Enhanced Luciferase Assay Kit from Analytical Luminescence Laboratory (San Diego, Calif., USA) according to the manufacturer's instructions using the Berthold Microlumat LB96P luminometer.
Ligands tested for inhibition of TGFβ1 activity were tested at a minimum of five concentrations. The ligands were serially diluted in DME, 20 mM Hepes pH 7.5, 0.1% Fluka BSA in polypropylene tubes and an equal volume of media containing 12 pM TGFβ1 was added to each tube, vortexed and transferred to the cells without further incubation.

[6] = target: T2, KGF (hKGF) (Homo sapiens, UniProt P21781 P21781:32-194); assay: filter; biphasic, high affinity 21%; Kd2 2.10 nM; conditions: tags: Upstate Biotechnology; label: 32P
T2 sequence: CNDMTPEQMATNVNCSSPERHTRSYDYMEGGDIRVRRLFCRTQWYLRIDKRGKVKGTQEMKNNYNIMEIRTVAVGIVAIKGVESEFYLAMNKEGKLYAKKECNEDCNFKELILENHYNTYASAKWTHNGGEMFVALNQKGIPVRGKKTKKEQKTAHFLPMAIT

[7] = target: T1, TGFβ1; assay: filter; not inhibitory; no binding with 2'-NH2 pyrimidines; conditions: tags: Genentech; biotinylated version used in bead assay; chain copies: 2
[8] = target: T3, PDGF-BB (Homo sapiens, UniProt P01127 P01127:82-190); assay: competition; PDGF alpha-receptor PAE cells, 4 C; conditions: tags: R&D Systems, E. coli; chain copies: B chain dimer; three-way helix junction
Method: The binding of ¹²⁵I-PDGF-AA and ¹²⁵I-PDGF-BB to porcine aortic endothelial (PAE) cells transfected with PDGF α- or β-receptors were performed as described (Heldin et al., (1988) EMBO J. 7:1387-1394). Different concentrations of DNA ligands were added to the cell culture (1.5 cm²) in 0.2 ml of phosphate buffered saline supplemented with 1 mg bovine serum albumin per ml together with ¹²⁵I-PDGF-AA (2 ng, 100,000 cpm) or ¹²⁵I-PDGF-BB (2 ng, 100,000 cpm). After incubation at 4° C. for 90 min, the cell cultures were washed and cell associated radioactivity determined in a γ-counter (Heldin et al., (1988) EMBO J. 7:1387-1394).
In order to determine whether the DNA ligands to PDGF were able to inhibit the effects of PDGF isoforms on cultured cells, the effects on binding of ¹²⁵I-labeled PDGF isoforms to PDGF α- and β-receptors stably expressed in porcine aortic endothelial (PAE) cells by transfection was determined.

[9] = target: PDGF-AB (Homo sapiens, UniProt P04085;P01127 P04085:87-211,P01127:82-190); assay: filter; +/-0.011; high affinity component; PBSM, 37 C; conditions: tags: R&D Systems, E. coli; label: 5'-32P; three-way helix junction
Method: (§1) The fraction of ³²P 5′ nd-labeled DNA ligands bound to varying concentrations of PDGF was determined by the nitrocellulose filter binding method. Minimal ligands tested were 20t (o), 36t (Δ), and 41t (□). Oligonucleotide concentrations in these experiments were ≈10 pM (PDGF-AB and PDGF-BB) and ≈50 pM (PDGF AA). Data points were fitted to eq. 1 (for binding of the DNA ligands to PDGF-AA) or to eq. 2 (for binding to PDGF AB and BB) using the non-linear least squares method. Binding reactions were done at 37° C. in binding buffer (PBSM with 0.01% HSA).
(§2) The binding of ssDNA ligands at low concentrations to varying concentrations of PDGF was determined by the nitrocellulose filter binding method as described (Green et al., (1995) Chemistry and Biology 2:683-695). The concentrations of PDGF stock solutions (in PBS) were determined from the absorbance readings at 280 nm using the following e₂₈₀ values calculated from the amino acid sequences (Gill, S.C. and von Hippel, P. H. (1989) Anal. Biochem. 182:319-326): 19,500 M⁻¹cm⁻¹ for PDGF-AA, 15,700 M⁻¹cm⁻¹ for PDGF-AB and 11,800 M⁻¹cm⁻¹ for PDGF-BB. ssDNA for all binding experiments were purified by electrophoresis on 8% (>80 nucleotides) or 12% (<40 nucleotides) polyacrylamide/7 M urea gels. All ssDNA ligands were heated at 90° C. in binding buffer at high dilution (1 μM) for 2 min and cooled on ice prior to further dilution into the protein solution. The binding mixtures were typically incubated for 15 min at 37° C. before partitioning on nitrocellulose filters.
(§3) ^aData points shown in FIG. 5A were fitted to eq 1 (Example 7). ^bData points in FIGS. 5B and 5C were fitted to eq. 2.

[10] = target: T3, PDGF-BB; assay: filter; +/-0.031; high affinity component; PBSM, 37 C; conditions: tags: R&D Systems, E. coli; chain copies: 2 (inferred); label: 5'-32P; three-way helix junction
Method: as §1, §3

[11] = target: PDGF-AA (Homo sapiens, UniProt P04085 P04085:87-211); assay: filter; +/-4; PBSM, 0.01% HSA, 37 C; comparable to random DNA; conditions: tags: R&D Systems, E. coli, long form of A-chain; chain copies: 2 (inferred); label: 5'-32P; three-way helix junction
Method: as §1
as §2, with “All ssDNA ligands were heated at 90° C. in binding buffer at high dilution (1 μM) for 2 min and cooled on ice prior to further dilution into the protein solution. The binding mixtures were typically incubated for 15 min at 37° C. before partitioning on nitrocellulose filters.” left out

[12] = target: T1, TGFβ1; assay: filter; cell IC50 22 nM; conditions: tags: Genentech; biotinylated version used in bead assay; chain copies: 2
[13] = target: T1, TGFβ1; assay: filter; 37 C, KRH buffer; conditions: tags: Genentech; biotinylated version used in bead assay; chain copies: 2
[14] = target: T1, TGFβ1; assay: filter; cell IC50 103 and 112 nM; fully effective only against TGFβ1, not TGFβ2 or TGFβ3; conditions: tags: Genentech; biotinylated version used in bead assay; chain copies: 2
[15] = target: T1, TGFβ1; assay: filter; C to G at position 53; not inhibitory; conditions: tags: Genentech; biotinylated version used in bead assay; chain copies: 2
[16] = target: T2, KGF (hKGF); assay: filter; 43-mer, shortest active truncate; retains high and low affinity components; conditions: tags: Upstate Biotechnology; pseudoknot (predicted)
Method: In an effort to identify shorter KGF ligands that retained binding, the binding activity of various deletions of the shortest truncate of ligand 14F, namely 14F3′T were tested. Deletions were tested in all the structural elements of the proposed pseudoknot structure. RNA transcripts containing 2′F pyrimidines and 2′OH purines were obtained by in vitro transcription using synthetic DNA templates. The activity of each ligand is shown by scoring for both the high (H) and low (L) affinity component of the 14F3′T binding curve with +(active) or −(not active). Truncates T35 and T36 represent two complementary halves of 14F3′T molecule and were additionally tested as an equimolar mixture. The structural elements of the proposed pseudoknot structure are separated by (1) and are indicated by symbols S1 (stem 1), S2 (stem 2), L1 (loop 1) and L3 (loop 3). The proposed pseudoknot structure for 14F3′T is a non-H-type pseudoknot and lacks L2 (loop 2). The complementary sequences forming S1 (S1 and S1′) and S2 (S2 and S2′) are marked by single and double underlines respectfully. In the tabulated sequences, deleted bases were replaced with periods (.). […] Deletions in loop 3 (L3), however, were tolerated as long as one copy of the RRYY box remained intact. The shortest ligand that retained activity is T22 which is a 43-mer. […]

T1 sequence (P01137 279-390, one chain of several): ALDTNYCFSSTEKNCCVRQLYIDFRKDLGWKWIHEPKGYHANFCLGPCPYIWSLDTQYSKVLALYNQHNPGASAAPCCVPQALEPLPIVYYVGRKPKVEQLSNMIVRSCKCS
T3 sequence (P01127 82-190, one chain of several): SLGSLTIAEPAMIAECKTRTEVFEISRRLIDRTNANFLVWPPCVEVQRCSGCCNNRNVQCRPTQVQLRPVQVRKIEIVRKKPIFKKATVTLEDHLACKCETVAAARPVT
Sequence of PDGF-AB (P01127 82-190, chain 2 of 2, other chains not shown): as the sequence (P01127 82-190, one chain of several) above

B1: lib2-6-1-81 (ssRNA)
RNA: GGGGGAGAACGCGGAUCCUGUCUCCACCGCCGAUACUGGGGUUCCUGGGGCCCCUCCAUGCAGGAGGGGGGUGGUUCGGAG
modifications: 2'-NH2 U, 2'-F C
- Kd [1]: 10.7 nM

B2: lib2-6-8 (lib1-6-8 in Table 4) (ssRNA)
RNA: GGGGGAGAACGCGGAUCCAUAACCGGCUGCAUGGGAGGGACAUCCUGGGAAAGGACGGGUCGAGAUGACCUGAGCAGUUCCGGCAAGCUUCGCUCUAGAUCUCCCUUUAGUGAGGGUUA
- Kd [2]: 4.7 nM

B3: lib1-20-12 (ssRNA)
RNA: GGGGGAGAACGCGGAUCCGGUCACCCGGGCAUAUAACAAUGCCGACACUGGGGUACCUGGGACGGGUGGGACUGGACGGAAGAAGCUUCGCUCUAGAUCUCCCUUUAGUGAGGGUUA
- Kd [3]: 3.1 nM

B4: lib3-44 (ssRNA)
RNA: GGGGGAGAACGCGGAUCCUGAGAAGGACGUCGGGGUGAGGUGCAGCAGAAAGGGCCGGCACCACAUGACGUAAAAGCUUCGCUCUAGAUCUCCCUUUAGUGAGGGUUA
modifications: 2'-NH2 pyrimidines
- Kd [4]: 1.3 nM
- IC50 [5]: 119 nM

B5: 50F (ssRNA)
RNA: GGGAGGACGAUGCGGUGAUCAAUCGGCGCUUUACUCUUGCGCUCACCGUGCCCCAGACGACUCGCCCGA
modifications: 2'-F pyrimidines
- Kd [6]: 0.12 nM

B6: lib1-20-3 (ssRNA)
RNA: GGGGGAGAACGCGGAUCCUGCUAGACCGAGGAUGCAAAGGGACAUGCAUUAGGGAAACCUAUGUAUAAGAACGCGGUCGCAGAAGCUUCGCUCUAGAUCUCCCUUUAGUGAGGGUUA
modifications: 2'-F pyrimidines
- Kd [7]: 30 nM

Binder: TACTCAGGGCACTGCAAGCAATTGTGGTCCCAATGGGCTGAGTAT (ssDNA, 3'-3' idT) [41t]
- IC50 [8]: ~1 nM

Binder: TGGGAGGGCGCGTTCTTCGTGGTTACTTTTAGTCCCGT (ssDNA, 3'-3' linked T at 3' end) [20t]
- Kd [9]: 0.147 nM
- Kd [10]: 0.127 nM
- Kd [11]: 47 nM

B7: lib3-42 (ssRNA)
RNA: GGGGGAGAACGCGGAUCCGGUGGGAAAGUCGGAUUAUGUGUGUAGAUUUGUGUGCGAAAGCUUCGCUCUAGAUCUCCCUUUAGUGAGGGUUA
modifications: 2'-NH2 pyrimidines
- IC50 [5]: 22 nM
- Kd [12]: 0.6 nM

B8: lib3-3 (ssRNA)
RNA: GGGGGAGAACGCGGAUCCGAGCAACCCCAGGCGCAUAGCUUCCGAGUAGACAGGAGGGAGGGGUGGAUGUGGCGUCUACUCGGUGUCGUGAAGCUUCGCUCUAGAUCUCCCUUUAGUGAGGGUUA
modifications: 2'-NH2 pyrimidines
- Kd [13]: 1.7 nM

B9: lib2-6-1 (ssRNA)
RNA: GGGGGAGAACGCGGAUCCUGUCUCCACCGCCGAUACUGGGGUUCCUGGGGCCCCUCCAUGCAGGAGGGGGGUGGUUCGGAGAAAGCUUCGCUCUAGAUCUCCCUUUAGUGAGGGUUA
modifications: 2'-NH2 U, 2'-F C
- Kd [14]: 14.3 nM

B10: lib8-23 (ssRNA)
RNA: GGGGGAGAACGCGGAUCCUGUCUCCACCGCCGAUACUGGGGUUCCUGGGGCCGCUCCAUGCAGGAGGGGGGUGGUUCGGAGAAAGCUUCGCUCUAGAUCUCCCUUUAGUGAGGGUUA
modifications: 2'-NH2 U, 2'-F C
- Kd [15]: 6.6 nM

Binder: GGGAGGACGAUGCGGUGGUCUCCCAAUUCUUCUCCAUCGUAUC (ssRNA, 2'-F pyrimidines) [T22]
- binding result [16]: binds
